# Source: US20030120051A1 (SUGEN, published 2003)
# T1: human contactin of IMR-32 neuroblastoma cells (140 kDa protein) (human, UniProt Q12860 21-993, GPI-anchored)
# T1 construct: whole, on cells; also called p140
# T1 sequence (looked up): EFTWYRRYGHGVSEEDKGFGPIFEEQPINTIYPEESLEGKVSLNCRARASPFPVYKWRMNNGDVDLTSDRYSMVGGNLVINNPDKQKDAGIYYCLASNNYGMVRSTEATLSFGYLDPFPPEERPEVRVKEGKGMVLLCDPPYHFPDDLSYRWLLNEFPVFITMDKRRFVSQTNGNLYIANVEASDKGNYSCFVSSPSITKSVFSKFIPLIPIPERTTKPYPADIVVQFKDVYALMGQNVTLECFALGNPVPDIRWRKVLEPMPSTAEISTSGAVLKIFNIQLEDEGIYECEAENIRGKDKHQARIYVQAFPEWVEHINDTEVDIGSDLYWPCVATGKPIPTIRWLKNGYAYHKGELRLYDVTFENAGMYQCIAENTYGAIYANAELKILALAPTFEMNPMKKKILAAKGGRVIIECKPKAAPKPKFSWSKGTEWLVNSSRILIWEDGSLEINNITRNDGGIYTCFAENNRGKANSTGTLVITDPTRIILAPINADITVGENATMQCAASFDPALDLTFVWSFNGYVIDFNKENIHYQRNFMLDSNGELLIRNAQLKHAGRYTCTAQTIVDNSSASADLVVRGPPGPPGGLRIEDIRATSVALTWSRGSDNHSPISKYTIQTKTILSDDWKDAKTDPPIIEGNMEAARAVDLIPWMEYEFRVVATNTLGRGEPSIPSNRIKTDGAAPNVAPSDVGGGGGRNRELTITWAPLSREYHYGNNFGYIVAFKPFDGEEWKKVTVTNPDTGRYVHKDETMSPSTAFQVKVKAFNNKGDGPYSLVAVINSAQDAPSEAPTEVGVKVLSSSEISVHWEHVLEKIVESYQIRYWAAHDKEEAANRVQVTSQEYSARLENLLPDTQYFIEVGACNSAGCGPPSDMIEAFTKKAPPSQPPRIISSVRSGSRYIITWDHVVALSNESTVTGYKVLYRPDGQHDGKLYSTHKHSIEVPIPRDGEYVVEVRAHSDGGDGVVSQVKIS
# T2: rat contactin (clone F8; p140 of GH3 cells) (rat, UniProt Q63198 21-1001, GPI-anchored)
# T2 construct: whole, on cells; On transfected COS7 cells, on GH3 cells, in solubilized GH3 membranes or in rat brain membranes, as the entry says; also called rat homologue of contactin; F3/F11
# T2 sequence (looked up): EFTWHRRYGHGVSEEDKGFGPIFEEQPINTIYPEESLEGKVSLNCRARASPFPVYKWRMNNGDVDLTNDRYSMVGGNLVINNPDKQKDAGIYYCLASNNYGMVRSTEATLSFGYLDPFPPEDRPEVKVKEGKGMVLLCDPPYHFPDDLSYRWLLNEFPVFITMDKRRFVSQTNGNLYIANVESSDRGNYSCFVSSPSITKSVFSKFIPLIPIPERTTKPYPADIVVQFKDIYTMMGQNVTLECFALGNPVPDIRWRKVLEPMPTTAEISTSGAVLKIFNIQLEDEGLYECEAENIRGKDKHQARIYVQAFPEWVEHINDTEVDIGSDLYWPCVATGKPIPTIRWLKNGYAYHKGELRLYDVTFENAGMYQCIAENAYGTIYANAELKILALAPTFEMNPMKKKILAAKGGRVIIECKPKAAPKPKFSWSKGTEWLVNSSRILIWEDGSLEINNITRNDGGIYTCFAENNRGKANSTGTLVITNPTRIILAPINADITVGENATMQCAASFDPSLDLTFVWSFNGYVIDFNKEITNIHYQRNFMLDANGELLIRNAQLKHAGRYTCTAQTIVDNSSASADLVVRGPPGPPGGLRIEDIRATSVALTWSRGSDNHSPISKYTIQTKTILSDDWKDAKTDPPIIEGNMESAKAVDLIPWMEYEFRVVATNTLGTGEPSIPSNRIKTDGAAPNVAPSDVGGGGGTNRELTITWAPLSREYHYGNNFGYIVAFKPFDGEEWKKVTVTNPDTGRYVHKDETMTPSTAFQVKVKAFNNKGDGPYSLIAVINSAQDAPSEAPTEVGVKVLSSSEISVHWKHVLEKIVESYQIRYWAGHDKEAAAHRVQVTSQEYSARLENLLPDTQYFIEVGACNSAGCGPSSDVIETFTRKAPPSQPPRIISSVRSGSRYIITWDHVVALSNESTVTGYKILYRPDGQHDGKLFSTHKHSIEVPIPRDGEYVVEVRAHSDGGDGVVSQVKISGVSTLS
# B1: βF-Fc (FNIII domain of RPTPβ fused to human IgG1-Fc) (Fc fusion)
# chain: not shown
# notes: domain: FNIII; also called the FNIII domain alone; fibronectin domain alone; not shown: human IgG1 Fc (vector pCNγ1)
# Assays:
# [1] = target: T1, human contactin of IMR-32 neuroblastoma …; test: cross-linking (DTSSP) on IMR-32 cells, protein A precipitation, SDS-PAGE
# Method: (§1) Cells were incubated for four hours with medium containing, the different Fc-fusion proteins. Following three washes with cold PBS/Ca (1 mM CaCl₂ in PBS), the cells were incubated for additional 30 minutes with PBS/Ca containing 1 mM DTSSP (3,3′-Dithiobis[sulfosuccinimidyl--propionate], Pierce, Rockford, Ill.). Free cross-linker was removed by additional PBS wash followed by quenching with 100 mM glycine in TBS for 10 minutes at 4° C. Cell lysates were made in SBN lysis buffer (Peles et al., 1991, EMBO J., 10:2077-2086), and Sepharose-protein A was added to the cleared lysates. Following two hours incubation at 4° C., the beads were washed three times with HNTG buffer (Peles et al., 1991, EMBO J., 10:2077-2086), and the bound proteins were eluted by adding SDS PAGE sample buffer containing 5% β-mercaptoethanol and further incubation for 10 minutes at 95° C.
# (§2) To characterize ligands for RPTPβ, a reversible cross-linker ([…]) was used, and proteins were sought that specifically bound to βC-Fc. Two of the cell lines that bound βC-Fc (IMR32 and GH3), as well as COS7 cells as a control, were allowed to react with the fusion proteins containing the FNIII or the CAH domains followed by cross-linking and precipitation of the complexes. […] No reactivity was detected in control cells or in cells incubated with βF-Fc. […]
# [2] = target: T2, rat contactin (clone F8; p140 of GH3 …); test: cross-linking (DTSSP) on GH3 cells, protein A precipitation, SDS-PAGE
# Method: as §1, §2
binder,measurement,setting,value
B1,binding result,[1],no binding
same,binding result,[2],no binding
